Test results from patent publication US20240029824A1 (University of Washington, published 2024).
Values belong to the binder of their own block, whether it stands above or below them.

B2: DHT05 chain B (SEQ ID NO: 88) (designed binder)
chain: SEVEKRLLEIHRRVAESHRILVEVHEALIEALRGNSEEAKEKLKELVKELEKIIKEEEELLKELEKIVEEAS

Columns and labels:
DHT01-4arm-01 chain C = molecular target: T1, DHT01-4arm-01 chain C; test: SEC and SDS-PAGE; chains of one ABC heterotrimer
T1 construct: also called DHT01-4arm-02 chain C; C2-DHT01-01 chain B
T1 chain: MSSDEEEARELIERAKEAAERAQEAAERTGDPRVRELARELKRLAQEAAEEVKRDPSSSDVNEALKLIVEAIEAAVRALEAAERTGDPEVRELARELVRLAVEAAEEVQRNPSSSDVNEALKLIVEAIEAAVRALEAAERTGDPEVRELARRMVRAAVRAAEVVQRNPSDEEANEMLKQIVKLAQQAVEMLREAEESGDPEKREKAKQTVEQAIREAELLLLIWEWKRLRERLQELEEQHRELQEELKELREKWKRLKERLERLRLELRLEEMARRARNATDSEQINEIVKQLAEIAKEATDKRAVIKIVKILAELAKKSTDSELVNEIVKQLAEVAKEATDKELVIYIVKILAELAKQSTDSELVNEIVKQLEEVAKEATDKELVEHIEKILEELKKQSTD

[1] = molecular target: T2, DHT05 chain C (SEQ ID NO: 89); test: SEC and SAXS; chains of one ABC heterotrimer
T2 chain: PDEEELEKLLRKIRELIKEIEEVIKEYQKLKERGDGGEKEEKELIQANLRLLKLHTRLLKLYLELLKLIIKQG

[2] = molecular target: T3, DHT05_3arm_A62/B71/C62 chain B; test: SEC and SAXS; chains of one ABC heterotrimer
T3 chain: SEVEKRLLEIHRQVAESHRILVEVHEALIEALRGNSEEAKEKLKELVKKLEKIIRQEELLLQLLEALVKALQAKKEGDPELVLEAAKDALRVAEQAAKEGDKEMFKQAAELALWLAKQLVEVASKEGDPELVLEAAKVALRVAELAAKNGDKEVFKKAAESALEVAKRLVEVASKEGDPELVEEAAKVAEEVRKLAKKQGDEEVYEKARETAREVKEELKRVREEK

[3] = molecular target: T4, DHT05_3arm_A62/B71/C62 chain C; test: SEC and SAXS; chains of one ABC heterotrimer
T4 chain: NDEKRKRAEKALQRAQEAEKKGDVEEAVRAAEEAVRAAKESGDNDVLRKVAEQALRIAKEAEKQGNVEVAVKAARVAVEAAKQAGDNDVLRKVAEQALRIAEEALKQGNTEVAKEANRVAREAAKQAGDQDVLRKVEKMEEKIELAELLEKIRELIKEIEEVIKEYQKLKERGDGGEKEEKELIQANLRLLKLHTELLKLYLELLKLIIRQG

[4] = molecular target: T5, DHT05 chain C (SEQ ID NO: 95); test: SEC and SAXS; chains of one ABC heterotrimer
T5 chain: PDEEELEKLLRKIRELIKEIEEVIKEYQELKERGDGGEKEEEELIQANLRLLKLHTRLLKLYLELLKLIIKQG

[5] = molecular target: B2; test: SEC and SAXS; chains of one ABC heterotrimer
DHT01 chain B = molecular target: T6, DHT01 chain B; test: co-expression, IMAC and Strep-Tactin pull-down, SEC, native MS; chains of one ABC heterotrimer
T6 chain: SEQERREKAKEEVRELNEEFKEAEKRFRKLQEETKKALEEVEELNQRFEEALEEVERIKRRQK
Source text: (§1) We obtained genes encoding 20 coiled coil designed heterotrimers (DHTs) in a tricistronic E. coli expression vector with one chain having a 6×His-tag and a second chain having Strep-tag II, expressed the proteins, and purified by immobilized metal affinity chromatography (IMAC) and Strep-Tactin pull-down. All designs were soluble and for 6 designs, all three components were observed by liquid chromatography-mass spectrometry (LC-MS) after both pull-down approaches. Of these, 5 eluted as monodisperse peaks by SEC, but only 1 design (DHT01) was an exclusive ABC heterotrimer by native mass spectrometry (nMS) and had good agreement with the design model via small angle X-ray scattering (SAXS) (FIG. 2d, Table 7).
(§2) Samples were analyzed by online buffer exchange native mass spectrometry (nMS) to evaluate sample purity and accurately determine oligomeric states⁴². Multiple instruments were used as the analyses were carried out over the duration of the protein design process. The mass spectrometers used for detection were a Q Exactive™ UHMR modified with a surface-induced dissociation device and an Exactive™ Plus EMR modified with a selection quadrupole and a surface-induced dissociation device (Thermo Fisher Scientific)⁴³. The liquid chromatography systems used for the buffer exchange include a Vanquish™ Duo UHPLC and a Dionex™ Ultimate 3000 HPLC (Thermo Fisher Scientific). A heated electrospray ionization source (HESI-II, Thermo Fisher Scientific) with a spray voltage of ˜4 kV was used for ionization. Protein samples stored in Tris buffer were injected (0.1-2 ug) onto the LC system and exchanged at a flow rate of 100-200 uL*min⁻¹ into 200 mM ammonium acetate (mobile phase) prior to ionization. Buffer exchange columns used include self-packed columns with P6 polyacrylamide gel (Bio-Rad Laboratories) and prototype buffer exchange columns provided by Thermo Fisher Scientific (Sunnyvale, CA). Instrument parameters were optimized to allow for ion transmission while minimizing unintentional ion activation. […]

DHT01 chain C = molecular target: T7, DHT01 chain C; test: as above
T7 chain: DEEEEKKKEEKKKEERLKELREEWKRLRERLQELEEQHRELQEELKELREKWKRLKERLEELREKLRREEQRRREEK
Source text: as §1, §2

[6] = molecular target: T8, DHT05 chain C (SEQ ID NO: 98); test: co-expression, SEC, SAXS; chains of one ABC heterotrimer
T8 chain: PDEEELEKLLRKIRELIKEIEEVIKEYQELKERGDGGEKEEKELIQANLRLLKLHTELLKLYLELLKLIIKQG

[7] = molecular target: T9, DHT03_3arm_A21/B21/C53 chain C; test: individually purified chains mixed 1:1:1, heat annealed, SEC
T9 chain: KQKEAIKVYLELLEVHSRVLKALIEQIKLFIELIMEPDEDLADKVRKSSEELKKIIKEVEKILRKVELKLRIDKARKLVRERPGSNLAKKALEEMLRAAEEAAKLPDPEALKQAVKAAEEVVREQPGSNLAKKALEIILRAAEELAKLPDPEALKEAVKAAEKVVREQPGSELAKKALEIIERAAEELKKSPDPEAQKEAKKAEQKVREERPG
Source text: (§3) To test this idea, an equimolar amount of individually purified A, B, and C of DHT03_2arm_A21/B21/C were mixed together and run through an annealing protocol (see Methods) to allow these interfaces to reassemble in the presence of all components. A monodisperse SEC peak was observed belonging to the ABC heterotrimer state as confirmed by overlap with its SEC co-expressed tricistronic version (FIG. 3d). To explore the use of this approach for building, four different repeat protein fusions to chain C were annealed in the same manner and all four 3-arm heterotrimers were successfully reconstituted. […] The successful reconstitution of these ABC assemblies, following the independent expression and purification of each chain and explicit mixing at a 1:1:1 ratio, enables their use in conjunction with other de novo proteins to mediate the specific assembly of multi-component assemblies. Independent expression also has considerable advantages over tricistronic expression from a gene synthesis perspective as DNA becomes much more difficult and expensive to synthesize with increasing construct size.
(§4) To test whether the DHT03 components could properly assemble in the presence of other helical hairpin containing chains, as would be the case for more complex assemblies, we chose DHD131, a designed helical hairpin unit heterodimer containing buried hydrogen bond networks¹². […] We evaluated simultaneous reconstitution of DHD131 and DHT03_3arm_A21/B21/C82, since the size difference between the two constructs (if correctly assembled) should be detected by SEC. We separately expressed and individually purified the two chains of the heterodimer and the three chains of the heterotrimer, mixed them at a 1:1:1:1:1 ratio, and carried out annealing and SEC as described above.

[8] = molecular target: T10, DHT03_3arm_A21/B21/C59 chain C; test: as above
T10 chain: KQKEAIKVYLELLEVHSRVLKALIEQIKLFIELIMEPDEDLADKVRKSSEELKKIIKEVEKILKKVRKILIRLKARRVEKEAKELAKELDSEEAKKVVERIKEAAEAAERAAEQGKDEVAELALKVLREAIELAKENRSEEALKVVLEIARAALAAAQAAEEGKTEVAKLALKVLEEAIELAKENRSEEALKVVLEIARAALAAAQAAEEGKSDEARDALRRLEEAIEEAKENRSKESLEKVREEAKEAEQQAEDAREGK
Source text: as §3, §4

[9] = molecular target: T11, DHT03_3arm_A21/B21/C62 chain C; test: as above
T11 chain: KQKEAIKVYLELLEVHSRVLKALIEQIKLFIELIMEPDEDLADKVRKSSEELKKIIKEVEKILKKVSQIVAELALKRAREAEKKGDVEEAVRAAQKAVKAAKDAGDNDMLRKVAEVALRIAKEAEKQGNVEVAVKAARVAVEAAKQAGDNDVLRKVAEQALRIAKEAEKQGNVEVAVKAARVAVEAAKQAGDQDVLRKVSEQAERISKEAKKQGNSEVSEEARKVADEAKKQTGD
Source text: as §3, §4

[10] = molecular target: T12, DHT03_3arm_A21/B21/C82 chain C; test: as above
T12 construct: also called chain C DHR82 fusion; chain C of C3-DHT03-01-DHR82 and C4-DHT03-01-DHR82
T12 chain: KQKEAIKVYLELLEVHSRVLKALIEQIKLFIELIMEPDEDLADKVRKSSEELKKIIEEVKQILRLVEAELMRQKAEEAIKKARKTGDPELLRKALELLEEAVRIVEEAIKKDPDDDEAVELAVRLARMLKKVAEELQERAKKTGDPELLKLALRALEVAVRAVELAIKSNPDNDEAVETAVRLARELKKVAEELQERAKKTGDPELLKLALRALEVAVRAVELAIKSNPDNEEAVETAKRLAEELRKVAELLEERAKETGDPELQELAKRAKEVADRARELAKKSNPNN
Source text: as §3, §4

- binding result (DHT01-4arm-01 chain C): binds
B1: DHT01-4arm-02 chain B (designed binder)
chain: MSSDEEEARELIERAKEAAERAQEAAERTGDPRVRELARELKRLAQEAAEEVKRDPSSSDVNEALKLIVEAIEAAVRALEAAERTGDPEVRELARELVRLAVEAAEEVQRNPSSSDVNRALKLIVRAIEAAVQLLEHAEKSGDPEVRELARELVRRLVEAAEEVQRNPSDEQKNTQLRRLIAKAEVWLLNEEFKEAEKRFRKLQEETKKALEEVEELNQRFEEALEEVERIKRRQK
notes: Strep-tag II was added to the N-terminus of chain B of DHT01 arms; also called C2-DHT01-04 chain B

Binder: B2
- binding result [1]: binds

- binding result [2]: binds
- binding result [3]: binds
B3: DHT05_3arm_A62/B71/C62 chain A (designed binder)
chain: NDEKRKRAEKALQRAQEAEKKGDVEEAVRAAQEAVRAAKESGDNDVLRKVAEQALRIAEEAEKQGNVEVAVKAARVAVEAAKQAGDNDVLRKVAEQALRIAEEAEKQGNVKVAADAVEVAVEAATQAGDQDVLRKASEQAKKVAKEAKKKGDHKVAVKATTLAVKAEFAAIQEEIKKLEEEAKKAEKGNGKEEIKELLLELSELLARSLQLLAQQIEAIAKLIRG

- binding result [4]: binds
B4: DHT05_2arm_A62/B14/C chain B (designed binder)
chain: SEVEKRLLEIHREVAESHRILVEVHEALIEALRGNSEEAKEKLKELVKKLEKIIKEEEELLKKLEKIVVQALAKAAKQATDSRQVNEIVKQLAEIAKEATDKRLVIEIVKILAELAKQSTDSELVNEIVKQLAEVAKEATDKELVIYIVKILAELAKQSTDSELVNEIVKQLEEVAKEATDKELVEHIEKILEELKKQSTD

- binding result [5]: binds
B5: DHT05 chain A (designed binder)
chain: PEEKKEIKRTTEEVKEEFRKIQEEIKKLEEEAKKAEKGNGKEEIKELLLRLSELLARSLQLLAQQIEAIAKLIRG

- binding result (DHT01 chain B): binds
- binding result (DHT01 chain C): binds
B6: DHT01 chain A (designed binder)
chain: DEEEKLRESLEEQKKRVKEIEREHEEIREALKRLQESVKRQEEALRQLG
notes: one chain of the co-expressed design carried a 6xHis-tag and a second a Strep-tag II

- binding result [6]: binds
B7: DHT05_2arm_A62/B14(2)-LHD101B14/C chain B (designed binder)
chain: SETEKRLLEIHRRVAESHRILVEVHEALIEALRGNSEEAKEKLKELVKKLEKIIREEEKLTVELAAKVAKSADDSEKVNEIVKTLAEIAKEATDKEQVIRIVKILAELAKQSTDSELVNEIVKQLAEVAKEATDKELVIYIVDILLKLAEQADDDELVEEIRKQLEEVAKEATDKELVEIIKAVIVLLVIISVVARMGVTMEIHKSGREVKVVIKGLHESQQEQLLEAVLRAAEEAGVRVRIRFKGDTVTIVVRG

- binding result [7]: binds
- binding result [8]: binds
- binding result [9]: binds
- binding result [10]: binds
B8: DHT03_3arm chain B (B21, SEQ ID NO: 73) (designed binder)
chain: SEKEKVEELAQRIREQLPDTELAREAQELADEARKSDDSEALKVVYLALRIVQQLPDTELAREALELAKEAVKSTDSEQLEVVRLALEIVQLAPDTRLARAALKLAKEAVKSTDQEELKKVKAILRVASEVLKLEEEAKKSQEEVERLKQEVEKASKAGLDHEGDSRIFKKIHDVVTKQIKVILRLIAVYAELVAIIG
notes: separately expressed with an N- or C-terminal 6xHis-tag
